Some targets named below: human IL-4 (human) (UniProt P05112); human IL-13 (human) (UniProt P35225); human IL-6 (human) (UniProt P05231).
Experiment in all cases: cell-based or functional assay
The target in assay [1] is recombinant human IL-13 (E. coli) (human) (UniProt P35225).
Assay [2] concerns the target recombinant human IL-1 (human).

Some results are limits rather than exact numbers.

human IL-4 (human), sequence (P05112 25-153 limits assumed): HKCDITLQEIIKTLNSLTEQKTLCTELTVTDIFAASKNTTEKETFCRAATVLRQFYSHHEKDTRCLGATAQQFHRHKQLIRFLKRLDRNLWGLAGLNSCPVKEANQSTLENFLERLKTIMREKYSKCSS
human IL-13 (human), sequence (P35225 35-146 limits assumed): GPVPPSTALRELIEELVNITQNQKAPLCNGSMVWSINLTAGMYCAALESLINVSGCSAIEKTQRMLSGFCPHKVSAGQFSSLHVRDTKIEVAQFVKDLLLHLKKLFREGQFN
human IL-6 (human), sequence (P05231 30-212 limits assumed): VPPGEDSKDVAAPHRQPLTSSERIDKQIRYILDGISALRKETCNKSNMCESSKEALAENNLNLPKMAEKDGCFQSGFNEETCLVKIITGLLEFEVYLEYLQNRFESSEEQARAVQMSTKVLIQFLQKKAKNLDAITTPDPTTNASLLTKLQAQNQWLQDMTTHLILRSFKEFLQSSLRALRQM
recombinant human IL-13 (E. coli) (human), sequence (P35225 35-146 limits assumed): as the sequence (P35225 35-146 limits assumed) above

On to IL-4/IL-13 Trap 1132 (Fc fusion), for which the IC50, TF1 cell proliferation with 15 pM IL-13 (E. coli; Preprotech), MTS in assay [1] was determined as 64 pM.
Take IL-4Rα.IL-13Rα1.Fc (Fc fusion): in the assay with human IL-4 (human), the TF1 cell proliferation (MTS); IL-4 concentration at which growth is inhibited by 50% with 10 nM Trap lay in the range of 3 to 4 nM and the TF1 cell proliferation (MTS); highest IL-4 concentration blocked by 10 nM Trap is 1 nM. Besides, in the assay with human IL-13 (human), the TF1 cell proliferation (MTS); IL-13 concentration at which growth is inhibited by 50% with 10 nM Trap lay within 4 to 5 nM and the TF1 cell proliferation (MTS); highest IL-13 concentration blocked by 10 nM Trap came to 2 nM.
Taken in the same sequence, the figures for IL-13Rα1.IL-4Rα.Fc (Fc fusion) were 3 to 4 nM, 1 nM, 4 to 5 nM and 2 nM.
Regarding gp130-Fc homodimer (Fc fusion), the inhibition of IL-6-dependent proliferation of XG-1 cells (MTT) (fold molar excess over IL-6) in the assay with human IL-6 (human) was greater than 1000.
On to “gp130-Fc-CNTFRα-Fc ligand Trap (Fc fusion)”, for which, in the assay with human IL-6 (human), the inhibition of IL-6-dependent proliferation of XG-1 cells (MTT) (fold molar excess over IL-6) was greater than 1000.
With human IL-1 Trap (Fc fusion), the serum IL-6 in mice after injection of human IL-1 (in vivo) (fold molar excess) in assay [2] is 150.

Values taken from patent publication US7083949.
